Target: T1, Cathepsin L (Calbiochem) (UniProt P07711 114-333, limits assumed)
T1 construct: Bought enzyme
Assay: complex binding, 2 ug SCCA protein mixed with cathepsin, 37 C 30 min, SDS-PAGE
Protocol: Complex binding of SCCA to substrates was performed by mixing 2 μg of SCCA-protein with 0.5 μg of Cathepsin G (Biodesign Int.) or 0.5 μg of […] Cathepsin L (Calbiochem) in 1×PBS buffer in a total volume of 4.5 μl. Samples were incubated at 37° C. for 30 minutes. To each sample, 0.5 μl of 10× Complex-buffer (20% SDS, 140 mM Mercaptoethanol, bromophenolblue) was added. Samples were incubated for 3 minutes at 95° C. and analyzed on a 12.5% SDS-PAGE-gel. The SCCA1/A2 fusion protein forms a complex with Cathepsin G but not with Cathepsin L showing that the fusion protein is functional and has the substrate specificity of SCCA2 (FIG. 8).

T1 sequence (P07711 114-333 limits assumed): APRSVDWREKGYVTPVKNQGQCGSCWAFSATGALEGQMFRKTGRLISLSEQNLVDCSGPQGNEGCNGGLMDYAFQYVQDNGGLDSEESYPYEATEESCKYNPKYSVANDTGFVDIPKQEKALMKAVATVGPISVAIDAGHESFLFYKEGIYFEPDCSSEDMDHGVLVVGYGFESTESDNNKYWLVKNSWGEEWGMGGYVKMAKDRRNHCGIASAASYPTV

- binding result: no binding
B1: SCCA1/SCCA2 fusion protein (other)
chain: MNSLSEANTKFMFDLFQQFRKSKENNIFYSPISITSALGMVLLGAKDNTAQQIKKVLHFDQVTENTTGKAATYHVDRSGNVHHQFQKLLTEFNKSTDAYELKIANKLFGEKTYLFLQEYLDAIKKFYQTSVESVDFANAPEESRKKINSWVESQTNEKIKNLIPEGNIGSNTTLVLVNAIYFKGQWEKKFNKEDTKEEKFWPNKNTYKSIQMMRQYTSFHFASLEDVQAKVLEIPYKGKDLSMIVLLPNEIDGLQKLEEKLTAEKLMEWTSLQNMRETCVDLHLPRFKMEESYDLKDTLRTMGMVNIFNGDADLSGMTWSHGLSVSKVLHKAFVEVTEEGVEAAAATAVVVVELSSPSTNEEFCCNHPFLFFIRQNKTNSILFYGRFSSP
notes: Recombinant serpin fusion (exons 2-7 of SCCA1 fused to exon 8 of SCCA2); also called SCCA1/A2; SCCA1/A2 fusion protein

Source: patent US20070218463A1 (CANAG DIAGNOSTICS, published 2007)
